This series has as its target Polθ (full-length DNA polymerase theta) (human, UniProt O75417 1-2590). The series can be described thus: fluorescence anisotropy; 1 mM ATP, 10 mM MgCl2; KD printed only in figure; significantly lower than Polθ-pol and Polθ-hel; Anisotropy: 25 mM Tris-HCl pH 8.8, 1 mM DTT, 0.01% NP-40, 10 mM MgCl2, 10% glycerol, 0.1 mg/ml BSA, 1 mM ATP, 30 mM NaCl, room temp, at least 30 min, 10 nM FAM-ssDNA. Particulars: protein: recombinant; tags: 3xFLAG (N-terminal); label: 5' FAM.

Chain of Polθ (full-length DNA polymerase theta) (O75417 whole entry): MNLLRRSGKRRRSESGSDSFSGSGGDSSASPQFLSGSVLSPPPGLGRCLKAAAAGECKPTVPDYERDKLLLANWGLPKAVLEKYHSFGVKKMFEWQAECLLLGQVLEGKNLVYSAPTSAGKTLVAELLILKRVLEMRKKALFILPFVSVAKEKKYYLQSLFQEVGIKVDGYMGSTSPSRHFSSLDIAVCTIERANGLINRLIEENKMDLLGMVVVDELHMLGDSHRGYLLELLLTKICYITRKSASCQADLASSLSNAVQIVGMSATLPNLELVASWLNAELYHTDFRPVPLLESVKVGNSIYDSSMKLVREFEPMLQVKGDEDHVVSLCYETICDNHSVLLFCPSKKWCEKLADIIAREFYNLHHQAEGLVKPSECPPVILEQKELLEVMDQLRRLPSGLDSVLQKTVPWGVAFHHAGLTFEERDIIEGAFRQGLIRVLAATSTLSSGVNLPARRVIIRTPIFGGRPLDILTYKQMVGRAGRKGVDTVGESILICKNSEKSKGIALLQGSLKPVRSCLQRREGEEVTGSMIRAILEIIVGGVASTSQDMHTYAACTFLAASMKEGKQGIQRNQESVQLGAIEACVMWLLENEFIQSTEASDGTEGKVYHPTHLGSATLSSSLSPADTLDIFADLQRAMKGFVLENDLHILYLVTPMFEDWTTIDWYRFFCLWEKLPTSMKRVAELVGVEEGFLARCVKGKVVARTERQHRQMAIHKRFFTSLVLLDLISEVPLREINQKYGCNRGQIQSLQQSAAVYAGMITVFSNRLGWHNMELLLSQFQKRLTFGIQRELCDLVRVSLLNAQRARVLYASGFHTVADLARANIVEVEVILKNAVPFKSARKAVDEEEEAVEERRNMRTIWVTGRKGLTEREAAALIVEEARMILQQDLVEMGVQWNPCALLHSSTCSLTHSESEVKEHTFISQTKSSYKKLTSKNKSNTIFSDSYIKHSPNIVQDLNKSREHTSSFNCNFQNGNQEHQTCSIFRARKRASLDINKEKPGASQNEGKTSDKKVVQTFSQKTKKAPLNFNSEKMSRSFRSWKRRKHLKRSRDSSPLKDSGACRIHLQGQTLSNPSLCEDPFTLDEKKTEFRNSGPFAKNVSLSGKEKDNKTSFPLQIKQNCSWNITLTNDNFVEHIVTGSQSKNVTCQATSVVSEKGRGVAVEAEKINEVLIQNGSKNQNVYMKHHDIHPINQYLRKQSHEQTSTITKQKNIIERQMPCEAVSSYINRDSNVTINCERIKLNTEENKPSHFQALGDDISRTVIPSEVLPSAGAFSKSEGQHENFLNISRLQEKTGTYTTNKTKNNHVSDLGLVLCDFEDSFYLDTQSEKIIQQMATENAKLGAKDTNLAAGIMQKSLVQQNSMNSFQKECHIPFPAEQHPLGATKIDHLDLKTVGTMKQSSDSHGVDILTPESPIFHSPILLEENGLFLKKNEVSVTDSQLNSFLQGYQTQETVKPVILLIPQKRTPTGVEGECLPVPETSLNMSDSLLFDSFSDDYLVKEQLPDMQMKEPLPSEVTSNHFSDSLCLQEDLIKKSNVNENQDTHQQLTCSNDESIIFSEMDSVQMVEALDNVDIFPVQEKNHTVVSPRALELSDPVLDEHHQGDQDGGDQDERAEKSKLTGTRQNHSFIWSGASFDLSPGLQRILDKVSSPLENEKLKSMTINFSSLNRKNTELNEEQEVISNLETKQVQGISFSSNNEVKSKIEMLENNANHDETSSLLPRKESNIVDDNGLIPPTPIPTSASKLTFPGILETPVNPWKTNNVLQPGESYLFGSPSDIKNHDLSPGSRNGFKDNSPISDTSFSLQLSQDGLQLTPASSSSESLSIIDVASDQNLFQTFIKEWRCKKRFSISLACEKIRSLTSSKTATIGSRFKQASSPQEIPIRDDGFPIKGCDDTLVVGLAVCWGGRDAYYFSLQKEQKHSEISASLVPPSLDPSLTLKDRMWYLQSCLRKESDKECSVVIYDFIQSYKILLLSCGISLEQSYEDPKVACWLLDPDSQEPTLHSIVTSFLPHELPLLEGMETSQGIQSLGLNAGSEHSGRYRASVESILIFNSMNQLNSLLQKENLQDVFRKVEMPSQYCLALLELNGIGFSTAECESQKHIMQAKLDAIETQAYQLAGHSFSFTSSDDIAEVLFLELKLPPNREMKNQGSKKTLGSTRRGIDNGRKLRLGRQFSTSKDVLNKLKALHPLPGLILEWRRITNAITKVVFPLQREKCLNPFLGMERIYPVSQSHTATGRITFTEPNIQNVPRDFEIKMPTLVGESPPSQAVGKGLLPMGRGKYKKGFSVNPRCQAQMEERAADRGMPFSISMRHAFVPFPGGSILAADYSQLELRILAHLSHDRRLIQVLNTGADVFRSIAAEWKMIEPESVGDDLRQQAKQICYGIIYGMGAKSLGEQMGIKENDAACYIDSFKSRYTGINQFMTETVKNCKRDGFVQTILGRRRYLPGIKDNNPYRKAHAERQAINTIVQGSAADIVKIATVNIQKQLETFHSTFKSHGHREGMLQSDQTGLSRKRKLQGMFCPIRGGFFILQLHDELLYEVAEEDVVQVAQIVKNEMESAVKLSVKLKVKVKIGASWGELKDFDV

B1: RP316FAM5 (29 nt ssDNA) (ssDNA)
DNA: TTTTTTTTTTTTTTTTTTTTTTTTTTTTT
Consider B1, for which the binding result is “binds”.

(Values after article PMC6764996, “Molecular basis of microhomology-mediated end-joining by purified full-length Polθ”.)
